Values of other authors, collected in publication PMC5648805.

What was measured:
[1] = target: Calmodulin (Homo sapiens) (UniProt P0DP23); test: ITC
Orai1 (Homo sapiens) = Orai1 (Homo sapiens) (UniProt Q96D31)
UniProt Q96D31, sequence (Q96D31 whole entry): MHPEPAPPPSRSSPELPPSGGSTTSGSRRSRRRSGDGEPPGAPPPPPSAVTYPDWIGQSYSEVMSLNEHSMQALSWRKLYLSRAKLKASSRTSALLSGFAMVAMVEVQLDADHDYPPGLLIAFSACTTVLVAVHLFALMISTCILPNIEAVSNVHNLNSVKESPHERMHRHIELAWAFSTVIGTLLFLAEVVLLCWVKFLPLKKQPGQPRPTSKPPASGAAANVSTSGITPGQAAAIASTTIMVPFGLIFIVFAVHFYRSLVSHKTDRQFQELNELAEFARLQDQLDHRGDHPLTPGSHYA

Row | Kd [1] [µM] | Kd (Orai1 (Homo sapiens)) [µM] | Substance
1 | 1 |  | STIM1 polybasic peptide polybasic region (from UniProt Q13586)
2 |  | 200 | STIM1 SOAR (from UniProt Q13586)
